Source: patent US20200264182A1 (J OIL MILLS, published 2020)
Each block holds one binder with its values, some of them ahead of it. Where no end group is shown, it is not given here.

B3: fucosylated PSA (prostate specific antigen) (enzyme)
chain: not shown
modifications: N-linked sugar chain with α1→6 fucose (site not stated)
notes: also called serum fucosylated PSA

How the values were obtained:
[1] = biological target: B3; test: sandwich ELISA on serum, biotin-labeled PhoSL peptide, pH 9.6
[2] = biological target: B3; test: sandwich ELISA: PSA captured on anti-PSA antibody, biotin-lectin detected with HRP-streptavidin
[3] = biological target: T1, Aleuria aurantia lectin (AAL), biotin-labeled (Aleuria aurantia, UniProt P18891 2-313, biotin label (sites not given)); test: sandwich ELISA on serum, biotin-labeled AAL, pH 7.4
T1 construct: Bought reagent, used as the comparative lectin
T1 sequence (looked up): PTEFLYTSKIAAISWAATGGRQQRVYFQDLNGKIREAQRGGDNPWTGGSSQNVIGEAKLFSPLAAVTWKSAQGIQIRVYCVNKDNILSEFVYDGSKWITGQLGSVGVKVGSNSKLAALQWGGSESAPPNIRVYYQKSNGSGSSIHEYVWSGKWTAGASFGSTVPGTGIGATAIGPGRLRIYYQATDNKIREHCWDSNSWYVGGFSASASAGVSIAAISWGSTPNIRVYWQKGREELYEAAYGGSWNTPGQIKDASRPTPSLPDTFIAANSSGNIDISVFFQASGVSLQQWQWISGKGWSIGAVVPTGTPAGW

binding result [1]: binds
B1: Pholiota squarrosa lectin peptide (PhoSL peptide), biotin-labeled (peptide)
peptide: KPVPVTKLVCDGDTYKCTAKLDFGDGRWVAQWDTNVFHK
modifications: cysteine pairing not given here; also: biotin label, sites not given here

binding result [2]: binds
B2: Pholiota squarrosa lectin (PhoSL), biotin-labeled (other)
chain: APVPVTKLVCDGDTYKCTAYLDFGDGRWVAQWDTNVFHTG
modifications: cysteine pairing not given here; also: biotin label, site not given here
notes: Lectin; also called biotin-labeled PhoSL; fucose α1→6 specific lectin

Binder: B3
binding result [3]: binds
